Assay results from publication PMC3087822 (Nature structural & molecular biology, 2011).

Tests used:
[1] = biological target: rat Munc13-1(859–1407,1453–1531) fragment (MUN*) (rat) (UniProt Q62768); assay: NMR titration
[2] = biological target: cytoplasmic domain (residues 2–253) of rat syntaxin-1A (rat, UniProt P32851 2-253); assay: SEC

In the case of “Munc18-1–SNARE complex assembly (Munc18-1 plus SNARE complex as titrated on 15N-MUN*) (from UniProt P32851;P63045;P60880)”, the Kd [1] is reported as 13 µM.

B1: human SNAP25 (residues 11–82) (domain or fragment)
chain: LEEMQRRADQLADESLESTRRMLQLVEESKDAGIRTLVMLDEQGEQLERIEEGMDQINKDMKEAEKNLTDLG
B1: binds [2].
